Key:
[1] = target: T1, PdbSCL1 (Populus davidiana x P. bolleana …, UniProt A0AAJ6V7V0 1-473); experiment: EMSA; Chemiluminescent EMSA kit (Beyotime), PAGE; buffer, salt, pH and temperature not stated; settings: protein: recombinant; tags: MBP (pMALc5X); label: 3' biotin; blunt
T1 sequence: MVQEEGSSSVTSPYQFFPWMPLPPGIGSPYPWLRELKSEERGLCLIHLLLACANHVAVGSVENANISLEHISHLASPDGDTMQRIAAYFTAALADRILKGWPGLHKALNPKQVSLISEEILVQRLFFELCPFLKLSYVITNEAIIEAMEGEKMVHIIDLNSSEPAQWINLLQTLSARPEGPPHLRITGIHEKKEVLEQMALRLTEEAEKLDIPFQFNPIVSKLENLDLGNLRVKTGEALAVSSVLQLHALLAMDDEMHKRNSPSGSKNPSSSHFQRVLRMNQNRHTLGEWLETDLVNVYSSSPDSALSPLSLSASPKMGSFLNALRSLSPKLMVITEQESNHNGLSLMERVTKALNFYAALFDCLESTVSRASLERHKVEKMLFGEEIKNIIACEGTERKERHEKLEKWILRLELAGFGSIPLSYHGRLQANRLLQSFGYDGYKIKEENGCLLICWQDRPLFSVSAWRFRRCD

[2] = target: T1, PdbSCL1; experiment: competition; EMSA, unlabelled mutant competitor; Chemiluminescent EMSA kit (Beyotime), PAGE; buffer, salt, pH and temperature not stated; settings: protein: recombinant; tags: MBP (pMALc5X); label: unlabelled; blunt

B1: NFY probe (3x CCAAT) (dsDNA)
DNA 1: CCAATCCAATCCAATC
DNA 2: GATTGGATTGGATTGG
binding result [1]: binds

B2: NFY mutant competitor (CCAAT to TTTTT) (dsDNA)
DNA 1: TTTTTTTTTTTTTTTC
DNA 2: GAAAAAAAAAAAAAAA
binding result [2]: no binding

B3: ABRE probe (3x CACGTG) (dsDNA)
DNA 1: CACGTGCACGTGCACGTG
DNA 2: CACGTGCACGTGCACGTG
binding result [1]: binds

B4: PCF probe (3x TGGGCC) (dsDNA)
DNA 1: TGGGCCTGGGCCTGGGCC
DNA 2: GGCCCAGGCCCAGGCCCA
binding result [1]: binds

Source: PMC12392933, “The SCARECROW‐LIKE transcription factor from Populus davidiana × P. bolleana simultaneously improved drought tolerance and plant growth through acetylation‐dependent mechanisms”
